Measurements reported in publication PMC4260937 (Nature, 2014).

Experiments:
Test in all cases: SPR
FFL_001_surf4 = target: FFL_001_surf4
FFL_001_surf1 = target: FFL_001_surf1
FFL_001_surf2 = target: FFL_001_surf2
FFL_001 = target: T1, FFL_001 (synthetic construct (designed scaffold))
T1 chain: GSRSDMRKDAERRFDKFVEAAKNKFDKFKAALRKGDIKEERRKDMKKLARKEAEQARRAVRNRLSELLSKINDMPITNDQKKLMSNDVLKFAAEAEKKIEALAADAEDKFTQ

Row | Molecule | Kd (FFL_001_surf4) [nM] | koff (FFL_001_surf4) [s⁻¹] | Kd (FFL_001_surf1) [nM] | kon (FFL_001_surf1) [M⁻¹ s⁻¹] | Kd (FFL_001_surf2) [nM] | koff (FFL_001_surf2) [s⁻¹] | kon (FFL_001_surf2) [M⁻¹ s⁻¹] | Kd (FFL_001) [nM]
1 | motavizumab Fab | 0.0329 | 0.000158 | 0.00632 | 7.43e+06 | 0.0296 | 0.000158 | 5.32e+06 | –
2 | 17-HD9 IgG (antibody, V domains shown) VH: QVQLQESGPGLVKPSETLSLTCVVSGGSFSSYYWTWIRQSPGKGLEWIGEMNGNSGYTNYNPSLQSRVTISKDASKNQFSLKLTSLTAADTAVYYCARDAIVMVFTDMRGRVDVWGPGILVTVSS VL: DIQMSQSPSSLSASVGDTVTITCRASQGISNYLAWYQQKPGKAPKSLIYYTSHLESGVPSRFSGSGSGTDFSLTISSLQPEDFATYYCQQHNSYPRTFGQGTKVEIK | – | – | – | – | – | – | – | ~0.003
